Laboratory results as given in publication PMC12428753, “Heparanase-Neutralizing Monoclonal Antibody (mAb A54) Attenuates Tumor Growth and Metastasis” (Cells, 2025).
One block for each binder: values may come before it.

Experiments:
latent 65 kDa heparanase [1] = target: T1, latent 65 kDa heparanase (Homo sapiens, UniProt Q9Y251); experiment: ELISA; 96-well microtiter plate coated with latent 65 kDa heparanase (Hpa65); purified mAb A54 or control mouse IgG added at the indicated concentrations; conditions: both partners purified
T1 construct: heparanase, human, unprocessed 65 kDa latent proenzyme on one chain ('full-length latent heparanase'); also called Hpa65; pro-heparanase; source: recombinant

latent 65 kDa heparanase [2] = target: T1, latent 65 kDa heparanase; experiment: SPR; Biacore analysis; orientation and conditions not told; conditions: both partners purified
[3] = target: T2, mature heparanase (active heterodimer of 8 kDa and 50 kDa subunits) (human)
T2 sequence (Q9Y251 whole entry, looked up): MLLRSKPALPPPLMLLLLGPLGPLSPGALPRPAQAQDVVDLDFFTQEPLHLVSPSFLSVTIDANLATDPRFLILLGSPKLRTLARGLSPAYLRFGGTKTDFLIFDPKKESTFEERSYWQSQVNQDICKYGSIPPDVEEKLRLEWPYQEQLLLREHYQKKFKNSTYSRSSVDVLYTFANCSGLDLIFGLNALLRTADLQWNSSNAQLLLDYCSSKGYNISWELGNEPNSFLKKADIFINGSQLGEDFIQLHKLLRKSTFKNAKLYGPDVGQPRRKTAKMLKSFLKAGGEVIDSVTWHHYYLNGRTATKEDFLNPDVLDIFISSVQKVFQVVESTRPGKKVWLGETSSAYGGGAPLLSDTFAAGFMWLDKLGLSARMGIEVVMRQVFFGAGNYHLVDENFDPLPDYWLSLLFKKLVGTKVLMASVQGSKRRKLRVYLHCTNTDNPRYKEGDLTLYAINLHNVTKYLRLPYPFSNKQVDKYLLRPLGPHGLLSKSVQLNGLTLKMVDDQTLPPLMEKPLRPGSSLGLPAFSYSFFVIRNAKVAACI

[4] = target: T3, heparanase protein (form not stated) (human) (UniProt Q9Y251); experiment: not stated; binding affinity of the humanized vs. the mouse A54 antibody for the heparanase protein; service by GenScript
T3 sequence: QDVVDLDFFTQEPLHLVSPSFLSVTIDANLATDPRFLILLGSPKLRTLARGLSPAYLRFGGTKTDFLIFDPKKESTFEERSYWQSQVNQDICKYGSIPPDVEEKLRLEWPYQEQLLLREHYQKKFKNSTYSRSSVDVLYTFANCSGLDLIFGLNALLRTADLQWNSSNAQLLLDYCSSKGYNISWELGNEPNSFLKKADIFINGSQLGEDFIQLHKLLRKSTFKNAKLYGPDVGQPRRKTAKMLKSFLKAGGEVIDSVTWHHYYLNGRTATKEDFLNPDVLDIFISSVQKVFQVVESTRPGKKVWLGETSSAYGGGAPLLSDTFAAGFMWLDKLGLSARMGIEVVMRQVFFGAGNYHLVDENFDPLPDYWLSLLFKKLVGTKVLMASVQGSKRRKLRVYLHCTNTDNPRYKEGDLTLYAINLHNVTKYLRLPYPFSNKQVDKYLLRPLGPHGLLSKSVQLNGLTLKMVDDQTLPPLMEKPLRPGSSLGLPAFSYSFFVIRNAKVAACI

IC50 (latent 65 kDa heparanase [1]): 0.2 nM | Kd (latent 65 kDa heparanase [2]): 3.18 nM | inhibition of heparanase enzymatic activity by hybridoma A54 supernatant (release of sulfate-labeled HS degradation fragments from 35S-labeled ECM) [3]: 80%
B1: A54 anti-heparanase monoclonal antibody (purified from hybridoma A54) (antibody, V domains shown)
VH: QVQLQQSGAELAKPGASVRMSCKASGYTFTNYWMHWVKQRPGQGLEWIGYINPTTGYTEYNQKFKDKATLTADKSSSTAYMQLSSLTSEDSAVYYCARGGAGYDYDEDYAMDYWGQGTSVTVSS
VL: DIVLTQSPASLAVSLGQRATISCRASESVEYFGTSYMNWYQQKPGQPPKLLIYLASILESGIPARFSGSGSGTDFTLNIHPVEEEDAATYYCQQSNEDPYTFGGGTKLEIK
notes: VH of A54; the Fab heavy chain is in the deposited structure PDB 9S8W; mouse IgG1 heavy chain constant region (subclass found with an isotyping kit); CH1 is also in PDB 9S8W; VL of A54; the Fab light chain is in the deposited structure PDB 9S8W; mouse kappa light chain constant region (IgG1-Kappa is stated for the recombinant version); also in PDB 9S8W; Mouse IgG1; whole IgG; Only the Fab part is …

Kd [4]: 1 nM
B2: recombinant A54 mAb (antibody, V domains shown)
VH: B1 VH
VL: B1 VL
